The target of the experiment is T1, 6xHis–Brd4(1–720) (human, UniProt O60885 1-720).
T1 construct: not shown: 6xHis, N-terminal, kept
In words: pull-down. As to conditions: both partners purified.

B1: GST–MLV IN CTD(290–408) (domain or fragment)
chain: PSLQAHLQALYLVQHEVWRPLAAAYQEQLDRPVVPHPYRVGDTVWVRRHQTKNLEPRWKGPYTVLLTTPTALKVDGIAAWIHAAHVKAADPGGGPSSRLTWRVQRSQNPLKIRLTREAP
notes: not shown: GST, N-terminal, kept
As for B1, binding was characterised by a dissociation constant (Kd) of 61.2 ± 4.05 nM.

B2: GST–MLV IN NTD–CCD(1–289) (domain or fragment)
chain: IENSSPYTSEHFHYTVTDIKDLTKLGAIYDKTKKYWVYQGKPVMPDQFTFELLDFLHQLTHLSFSKMKALLERSHSPYYMLNRDRTLKNITETCKACAQVNASKSAVKQGTRVRGHRPGTHWEIDFTEIKPGLYGYKYLLVFIDTFSGWIEAFPTKKETAKVVTKKLLEEIFPRFGMPQVLGTDNGPAFVSKVSQTVADLLGIDWKLHCAYRPQSSGQVERMNRTIKETLTKLTLATGSRDWVLLLPLALYRARNTPGPHGLTPYEILYGAPPPLVNFPDPDMTRVTNS
As to B2, the Kd (usually a measure of binding affinity in units of concentration) is > 2000 nM.

Values taken from paper PMC4005663 (Nucleic Acids Research, 2014).
